US20220332804A1 (CSL INNOVATION, published 2022)
Where a chain is given by its changes, count along the chain named.

What was measured:
Experiment in all cases: SPR, KD relative to WT C2;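 also: biacore SPR at 37 °C, anti-C2 mAbs captured on anti-human IgG chips with alanine or serine point mutants of C2 as analyte, KD from 1:1 fit compared with wild-type C2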
human C2 N380A = biological target: T1, human C2 N380A (human, UniProt P06681 21-752)
T1 sequence: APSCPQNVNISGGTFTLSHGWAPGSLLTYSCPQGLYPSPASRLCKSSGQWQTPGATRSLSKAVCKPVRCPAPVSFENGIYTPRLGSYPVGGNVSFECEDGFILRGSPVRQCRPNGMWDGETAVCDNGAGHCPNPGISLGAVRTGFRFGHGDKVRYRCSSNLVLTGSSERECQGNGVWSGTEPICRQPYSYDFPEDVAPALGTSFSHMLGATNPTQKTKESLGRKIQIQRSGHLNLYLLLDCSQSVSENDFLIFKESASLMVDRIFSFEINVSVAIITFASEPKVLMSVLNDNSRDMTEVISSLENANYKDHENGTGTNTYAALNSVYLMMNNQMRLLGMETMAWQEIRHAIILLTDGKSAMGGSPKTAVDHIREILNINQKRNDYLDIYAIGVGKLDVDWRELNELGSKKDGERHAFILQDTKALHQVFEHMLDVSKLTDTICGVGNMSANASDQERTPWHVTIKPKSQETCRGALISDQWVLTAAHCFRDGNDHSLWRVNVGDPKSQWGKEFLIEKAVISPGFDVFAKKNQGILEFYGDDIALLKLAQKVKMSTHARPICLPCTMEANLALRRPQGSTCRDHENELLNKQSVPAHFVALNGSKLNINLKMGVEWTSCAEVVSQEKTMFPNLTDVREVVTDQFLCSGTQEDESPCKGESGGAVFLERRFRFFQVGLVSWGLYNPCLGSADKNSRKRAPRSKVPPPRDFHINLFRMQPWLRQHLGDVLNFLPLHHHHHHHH

human C2 S428A = biological target: T2, human C2 S428A (human, UniProt P06681 21-752)
T2 sequence: T1 sequence with A360N, S408A

human C2 K244A = biological target: T3, human C2 K244A (human, UniProt P06681 21-752)
T3 sequence: T1 sequence with K224A, A360N

human C2 H446A = biological target: T4, human C2 H446A (human, UniProt P06681 21-752)
T4 sequence: T1 sequence with A360N, H426A

B1: RF16-242 (antibody, human IgG4 S228P, lambda, V domains shown)
VH: EVQLLQSGAEVKKPGESLKISCKGSGYSFTSYWIGWVRQMPGKGLEWMGIIYPGDSDTRYSPSFQGQVTISADKSISTAYLQWSSLKASDTAMYYCARRGHYGDYFDYWGQGTLVTVSS
VL: SYELTQPPSVSVSPGQTARITCSGDALPKKYAYWYHQKSGQAPVLVIYEDRRRPSEIPERFSGSSSGTMATLTITGAQVEDEGVYFCYSRDRAGNQRVFGGGTQLTVLG
notes: pH-dependent anti-C2 antibody from a phage display library
- Fold diff (human C2 N380A): 1 fold
- Fold diff (human C2 S428A): 3 fold
- Fold diff (human C2 K244A): 4 fold
- Fold diff (human C2 H446A): 2 fold
